Source: paper PMC6475063 (Journal of the American Heart Association: Cardiovascular …, 2019)

T1: YFP-tagged human AT1R (angiotensin II type 1 receptor) (human, UniProt P30556 1-359)
T1 sequence (looked up): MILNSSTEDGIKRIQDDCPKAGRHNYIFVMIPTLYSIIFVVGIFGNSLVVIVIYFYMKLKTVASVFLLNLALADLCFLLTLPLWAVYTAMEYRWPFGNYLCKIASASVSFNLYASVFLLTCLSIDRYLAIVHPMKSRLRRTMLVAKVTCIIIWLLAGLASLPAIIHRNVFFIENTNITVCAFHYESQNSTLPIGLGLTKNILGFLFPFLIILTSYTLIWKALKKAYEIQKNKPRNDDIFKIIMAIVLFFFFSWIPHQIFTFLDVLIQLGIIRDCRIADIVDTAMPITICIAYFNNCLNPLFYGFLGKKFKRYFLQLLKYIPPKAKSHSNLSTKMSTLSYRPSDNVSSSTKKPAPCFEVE


Experiments:
[1] = target: T1, YFP-tagged human AT1R (angiotensin II …); assay: FRET or BRET
[2] = target: T1, YFP-tagged human AT1R (angiotensin II …); assay: FRET or BRET; remark: listed apart in the source

| Binder | relative change of BRET ratio, 2 min with Ang II [1] | relative change of BRET ratio, 5 min with Ang II [1] | relative change of BRET ratio, 10 min with Ang II [1] | relative change of BRET ratio, 20 min with Ang II [1] | relative change of BRET ratio, 30 min with Ang II [1] | EC50 of Ang II for the relative change of BRET ratio [2] |
| --- | --- | --- | --- | --- | --- | --- |
| RLuc-tagged bovine β-arrestin2 (natural protein, UniProt P32120 1-420, looked up) MGEKPGTRVFKKSSPNCKLTVYLGKRDFVDHLDKVDPVDGVVLVDPDYLKDRKVFVTLTCAFRYGREDLDVLGLSFRKDLFIANYQAFPPTPNPPRPPTRLQERLLRKLGQHAHPFFFTIPQNLPCSVTLQPGPEDTGKACGVDFEIRAFCAKSLEEKSHKRNSVRLVIRKVQFAPEKPGPQPSAETTRHFLMSDRSLHLEASLDKELYYHGEPLNVNVHVTNNSTKTVKKIKVSVRQYADICLFSTAQYKCPVAQVEQDDQVSPSSTFCKVYTITPLLSNNREKRGLALDGKLKHEDTNLASSTIVKEGANKEVLGILVSYRVKVKLVVSRGGDVSVELPFVLMHPKPHDHIALPRPQSAATHPPTLLPSAVPETDAPVDTNLIEFETNYATDDDIVFEDFARLRLKGLKDEDYDDQFC | 89.7 % (Ang II for 10 minutes set to 100%) | 102 % (Ang II for 10 minutes set to 100%) | 100 % (Ang II for 10 minutes set to 100%) | 112 % (Ang II for 10 minutes set to 100%) | 93.9 % (Ang II for 10 minutes set to 100%) | 6.3 nmol/L |
| RLuc-tagged bovine β-arrestin1 (natural protein, UniProt P17870 1-418, looked up) MGDKGTRVFKKASPNGKLTVYLGKRDFVDHIDLVEPVDGVVLVDPEYLKERRVYVTLTCAFRYGREDLDVLGLTFRKDLFVANVQSFPPAPEDKKPLTRLQERLIKKLGEHAYPFTFEIPPNLPCSVTLQPGPEDTGKACGVDYEVKAFCAENLEEKIHKRNSVRLVIRKVQYAPERPGPQPTAETTRQFLMSDKPLHLEASLDKEIYYHGEPISVNVHVTNNTNKTVKKIKISVRQYADICLFNTAQYKCPVAMEEADDTVAPSSTFCKVYTLTPFLANNREKRGLALDGKLKHEDTNLASSTLLREGANREILGIIVSYKVKVKLVVSRGGLLGDLASSDVAVELPFTLMHPKPKEEPPHREVPEHETPVDTNLIELDTNDDDIVFEDFARQRLKGMKDDKEEEEDGTGSPRLNDR | 89.1 % (Ang II for 10 minutes set to 100%) | 107 % (Ang II for 10 minutes set to 100%) | 100 % (Ang II for 10 minutes set to 100%) | 93.5 % (Ang II for 10 minutes set to 100%) | 95.8 % (Ang II for 10 minutes set to 100%) | 6.7 nmol/L |
